We go through one substance from publication PMC3752660.

In the test the target is His6-Rv3208 (FasR from M. tuberculosis) (M. tuberculosis H37Rv). The test can be described thus: SEC.

On to “His6-Rv3208 (FasR from M. tuberculosis) (natural protein)”, for which the stoichiometry N was 2.

Usually stoichiometry N stands for a count of units in the complex or per binding partner.
